Experimental data: patent US7144988B2, “Method of structure-based drug design to create or improve modulators of IL-1 activity which bind to the interleukin-1 type 1 receptor” (Array Biopharma, Inc., priority 2002, dated 2006)

Target: T1, IL1R2D (modified IL-1 type 1 receptor, amino acids 18 to 222) (Homo sapiens, UniProt P14778)
T1 construct: made in house; host or cells: Hi5 insect cells, recombinant baculovirus (made in Sf9)
T1 sequence (P14778 18-222): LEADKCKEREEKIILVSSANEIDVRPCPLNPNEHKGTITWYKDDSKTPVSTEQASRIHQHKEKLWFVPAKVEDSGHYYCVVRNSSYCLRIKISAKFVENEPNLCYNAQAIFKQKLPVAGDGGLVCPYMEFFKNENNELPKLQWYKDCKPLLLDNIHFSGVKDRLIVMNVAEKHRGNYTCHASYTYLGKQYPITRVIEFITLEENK
Assay: Binding affinity of ligands to modified IL-1 type 1 receptor IL1R2D

## IL-1ra: IL-1 receptor antagonist protein; competes with IL-1α and β for receptor binding
  Kd: ≥ 1000 nM
